Data reported in PMC5944358 (The Biochemical journal, 2018).
Where two headings read alike, the source gives them in different places.

Key:
[1] = target: T1, HIV-1 YU2 gp120 (HIV-1 YU2, UniProt P35961 32-498); experiment: SPR
[2] = target: T1, HIV-1 YU2 gp120; experiment: ITC
[3] = target: T1, HIV-1 YU2 gp120; experiment: SPR; remark: listed apart in the source
[4] = target: T1, HIV-1 YU2 gp120; experiment: ELISA

Binder	Kd [1] [µM]	koff [1] [s⁻¹]	kon [1] [M⁻¹ s⁻¹]	Kd [2] [µM]	stoichiometry N [2]	koff [3] [s⁻¹]	kon [3] [M⁻¹ s⁻¹]	IC50 [4] [µM]	Kd [3] [µM]	k1 (step 1, association) [3] [M⁻¹ s⁻¹]	k2 (step 2, forward) [3] [M⁻¹ s⁻¹]	k-1 (step 1, dissociation) [3] [s⁻¹]	k-2 (step 2, reverse) [3] [s⁻¹]
cyanovirin-N (CVN) (natural protein) LGKFSQTCYNSAIQGSVLTSTCERTNGGYNTSSIDLNSVIENVDGSLKWQPSNFIETCRNTQLAGSSELAAECKTRAQQFVSTKINLDDHIANIDGTLKYE	0.00865	1.48e-05	1710	–	–	–	–	–	–	–	–	–	–
Microvirin (MVN) (natural protein) MPNFSHTCSSINYDPDSTILSAECQARDGEWLPTELRLSDHIGNIDGELQFGDQNFQETCQDCHLEFGDGEQSVWLVCTCQTMDGEWKSTQILLDSQIDNNDSQLEIG	0.12	–	–	0.225 ± 0.01	1.29 ± 0.04 protein:gp120	0.000445	4160	0.068 ± 0.008	–	–	–	–	–
MVN_Q81K (natural protein) MPNFSHTCSSINYDPDSTILSAECQARDGEWLPTELRLSDHIGNIDGELQFGDQNFQETCQDCHLEFGDGEQSVWLVCTCKTMDGEWKSTQILLDSQIDNNDSQLEIG	–	–	–	–	–	0.000368	9180	–	0.045	1.73e+06	0.0048	0.16	0.0023
MVN_G43E (natural protein) MPNFSHTCSSINYDPDSTILSAECQARDGEWLPTELRLSDHIENIDGELQFGDQNFQETCQDCHLEFGDGEQSVWLVCTCQTMDGEWKSTQILLDSQIDNNDSQLEIG	–	–	–	–	–	0.00061	2020	–	0.36	340000	0.0049	0.244	0.0025
MVN_Q81K/G85Q (natural protein) MPNFSHTCSSINYDPDSTILSAECQARDGEWLPTELRLSDHIGNIDGELQFGDQNFQETCQDCHLEFGDGEQSVWLVCTCKTMDQEWKSTQILLDSQIDNNDSQLEIG	–	–	–	–	–	9.4e-05	880	–	0.101	160000	0.0041	0.053	0.00178
MVN_G43E/Q81K/M83R/G85Q (natural protein) MPNFSHTCSSINYDPDSTILSAECQARDGEWLPTELRLSDHIENIDGELQFGDQNFQETCQDCHLEFGDGEQSVWLVCTCKTRDQEWKSTQILLDSQIDNNDSQLEIG	–	–	–	–	–	0.000156	1490	–	0.1	240000	0.0063	0.078	0.002
MVN_Q81K/M83R/G85Q (natural protein) MPNFSHTCSSINYDPDSTILSAECQARDGEWLPTELRLSDHIGNIDGELQFGDQNFQETCQDCHLEFGDGEQSVWLVCTCKTRDQEWKSTQILLDSQIDNNDSQLEIG	–	–	–	–	–	0.000232	3240	–	0.077	340000	0.0055	0.058	0.0041
MVN(Q81K/M83R) (natural protein) MPNFSHTCSSINYDPDSTILSAECQARDGEWLPTELRLSDHIGNIDGELQFGDQNFQETCQDCHLEFGDGEQSVWLVCTCKTRDGEWKSTQILLDSQIDNNDSQLEIG	–	–	–	0.075 ± 0.011	1.31 ± 0.132 protein:gp120	3.3e-05	1880	–	0.021	310000	0.0051	0.03	0.0011
MVN_G43E/M83R (natural protein) MPNFSHTCSSINYDPDSTILSAECQARDGEWLPTELRLSDHIENIDGELQFGDQNFQETCQDCHLEFGDGEQSVWLVCTCQTRDGEWKSTQILLDSQIDNNDSQLEIG	–	–	–	–	–	0.000103	980	–	0.13	110000	0.0075	0.045	0.0023
MVN_M83R (natural protein) MPNFSHTCSSINYDPDSTILSAECQARDGEWLPTELRLSDHIGNIDGELQFGDQNFQETCQDCHLEFGDGEQSVWLVCTCQTRDGEWKSTQILLDSQIDNNDSQLEIG	–	–	–	–	–	0.000145	2990	–	0.052	290000	0.0076	0.05	0.0029
MVN_G43E/G85Q (natural protein) MPNFSHTCSSINYDPDSTILSAECQARDGEWLPTELRLSDHIENIDGELQFGDQNFQETCQDCHLEFGDGEQSVWLVCTCQTMDQEWKSTQILLDSQIDNNDSQLEIG	–	–	–	–	–	0.000122	710	–	0.18	90000	0.0077	0.051	0.0024
MVN_G43E/Q81K (natural protein) MPNFSHTCSSINYDPDSTILSAECQARDGEWLPTELRLSDHIENIDGELQFGDQNFQETCQDCHLEFGDGEQSVWLVCTCKTMDGEWKSTQILLDSQIDNNDSQLEIG	–	–	–	–	–	0.000173	1660	–	0.12	180000	0.0082	0.064	0.0027
MVN_G85Q (natural protein) MPNFSHTCSSINYDPDSTILSAECQARDGEWLPTELRLSDHIGNIDGELQFGDQNFQETCQDCHLEFGDGEQSVWLVCTCQTMDQEWKSTQILLDSQIDNNDSQLEIG	–	–	–	–	–	0.000191	2960	–	0.072	290000	0.0089	0.071	0.0027
